Measurements published in PMC5591422, “A Peptide-Fc Opsonin with Pan-Amyloid Reactivity” (Frontiers in Immunology, 2017).
Ends that are not written are not given here.

B1: Fcp5 (peptide p5-murine IgG2a Fc fusion) (Fc fusion)
chain: VTPTVGGGYSKAQKAQAKQAKQAQKAQKAQAKQAKQVTPTV
modifications: not fully specified (C-terminus); also: fused to murine IgG2a Fc, glycosylated, site not given here
notes: 5-amino acid spacer flanking p5; peptide p5, non-natural 31-amino acid polybasic peptide; Disulfide-linked dimer by SDS-PAGE (theoretical monomer Mw 31,553); Cloned into the Nco I and Bgl II sites of pFUSE-mIgG2A-Fc in frame with the IL-2 secretory leader and the Fc; also called peptide p5-Fc fusion construct; source: HEK293T/17, transient transfection, purified from culture supernatant (protein …)
B2: peptide p5 (peptide)
peptide: GGGYSKAQKAQAKQAKQAQKAQKAQAKQAKQ
modifications: also: biotinylated in EuLISA, site not given here, 125I-labelled in pulldown assays
notes: non-natural 31-amino acid peptide with eight lysines in a heptad repeat; also called biotinylated-p5; source: synthetic peptide (Anaspec), purified by RP-HPLC

How the values were obtained:
[1] = biological target: rVλ6Wil amyloid-like fibrils; test: ELISA; EuLISA: amyloid-like fibrils (0.83 µM) adsorbed to microplate wells overnight at 37°C, blocked with 1% BSA in PBS; Fcp5, biotinylated-p5 or Fc2a titrated in PBS with 1% BSA and 0.05% tween 20; detected with biotinylated goat anti-mouse IgG and europium-streptavidin; estimated EC50
[2] = biological target: Aβ(1–40) amyloid-like fibrils; test: as above
[3] = biological target: rVλ6Wil amyloid-like fibrils; test: SPR; BIAcore X, CM5 chip coated with rVλ6Wil fibrils (channel 1) and rVλ6Wil monomer (channel 2, subtracted as control); Fcp5 2 µg/mL or p5 0.2 µg/mL, 70 µL, 20 µL/min, 200 s binding and 200 s dissociation; two-state binding algorithm with conformational change
[4] = biological target: T1, IAPP amyloid-like fibrils (human, UniProt P10997 34-70); test: ELISA; EuLISA: amyloid-like fibrils (0.83 µM) adsorbed to microplate wells overnight at 37°C, blocked with 1% BSA in PBS; Fcp5, biotinylated-p5 or Fc2a titrated in PBS with 1% BSA and 0.05% tween 20; detected with biotinylated goat anti-mouse IgG and europium-streptavidin; estimated EC50; details: both partners purified
T1 construct: islet amyloid polypeptide, the mature hormone; Fibrillar state; also called IAPP fibrils; islet amyloid polypeptide fibrils; source: bought: Anaspec (90% pure); fibrils prepared in sterile PBS
T1 peptide (looked up): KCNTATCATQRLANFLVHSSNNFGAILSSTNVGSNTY

Binder | EC50 [1] | EC50 [2] | Kd [3] | signal deflection [3] | EC50 [4]
B1 | 1 nM | 4 nM | 3 nM | 200 au | ~15 nM
B2 | 14 nM | 230 nM | 5 nM | 100 au | ~200 nM
